T1: canine beta-NGF (cNGF) (canine, UniProt Q29074 110-229 (pig entry))
T1 chain: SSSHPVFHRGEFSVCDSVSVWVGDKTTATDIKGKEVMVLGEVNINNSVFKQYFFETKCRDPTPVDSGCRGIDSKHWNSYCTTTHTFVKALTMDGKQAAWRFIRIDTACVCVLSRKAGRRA

B1: 16G01-02F03 (antibody, IgG2a, V domains shown)
VH: EVQLQESGAELVKPGASVKLSCKASGYTFTNYWMHWVKQRPGQGLEWIGHIDPSDGETHYNQKFKDKATLTVDKSSSTAYMQLTGLTSEDSAVYYCARFLPDYWGQGTSVTVSS
VL: DIVLTQTPAIMSASPGEKVTMTCRASSSVSSIYLHWYQQKPGSSPKLWIYSTSNLASGVPARFSGSGSGTSYSLTVSSVEAEDAATYYCQLYDNSPLTFGAGT
B2: 15H02-02E01 (antibody, IgG1, V domains shown)
VH: EVQLEQSGPGLVAPSQSLSITCTVSGFSLTGYGVNWVRQPPGKGLEWLGMIWGDGSTDYNSALKSRLSISKDNSKSQVFLKMNSLQTDDTARYYCARDGYYYGTTWYFDVWGAGTTVTVSS
VL: DIVLTQSTSSLSASLGDRVTISCRASQDISNYLNWYQQKPDGTIKLLIYYTSRLHSGVPSRFSGSGSGTDYSLTISNLEQEDIATYFCQQGSTLPRTFGGGT
B3: 30E01-02A11 (antibody, IgG1, V domains shown)
VH: QVKLEESGPGLVAPSQSLSITCTVSGFSLTGYGVNWVRQPPGKGLEWLGMIWGDGSTDYNSALKSRLSISKDNSKSQVFLKMNSLQTDDTARYYCARDGYYYGTTWYFDVWGAGTTVTVSS
VL: DIVLTQTTSSLSASLGDRVTISCRASQDISNYLNWYQQKPDGTIKLLIYYTSRLHSGVPSRFSGSGSGTDYSLTISNLEQEDIATYFCQQGSTLPRTFGGGT
B4: 20D11-02E10 (antibody, IgG1, V domains shown)
VH: EVQLEESGPGLVAPSQSLSITCTVSGFSLTGYGVNWVRQPPGKGLEWLGMIWGDGSTDYNSALKSRLSISKDNSKSQVFLKMNSLQTDDTARYYCARDGYYYGTTWYFDVWGAGTTVTVSS
VL: DIVITQTPLSLPVSLGDQASISCRSSQSIVHINRHTYLGWYLQKPGQSLKLLIYGVSNRFSGVPDRFSGSGSGTDFTLKISRVEAEDMGVYYCFQGTHVPFTFGSGT
B5: 02B04-02A08 (antibody, V domains shown)
VH: EVKLEESGPGLVAPSQSLSITCTVSGFSLTGYGVNWVRQPPGKGLEWLGMIWGDGSTDYNSALKSRLNISKDNSKSQVFLKMDSLQTDDTARYYCARGGYDYDVPFFDYWGQGTTLTVSS
VL: DIVMTQTTSSLSASLGDRVTISCRASQDISNYLNWYQQKPDGTVKLLIYYTSRLHSGVPSRFSGSGSGTDYSLTISNLEQEDIATYFCQQGNMFPYTLGGGT
B6: 31F05-02B03 (antibody, IgG1, V domains shown)
VH: EVQLQQSGPGLVAPSQSLSITCTVSGFSLTGYGVNWVRQPPGKGLEWLGMIWGDGSTDYNSALKSRLSISKDNSKSQVFLKMNSLQTDDTARYYCARDGYYYGTTWYFDVWGAGTTVTVSS
VL: DIQMTQTTSSLSASLGDRVTISCRASQDISNYLNWYQQKPDGTIKLLIYYTSRLHSGVPSRFSGSGSGTDYSLTISNLEQEDIATYFCQQGSTLPRTFGGGT
B7: 26C08-02F06 (antibody, IgG1, V domains shown)
VH: EVKLEESGPGLVAPSQSLSITCTVSGFSLTGYGVNWVRQPPGKGLEWLGMIWGDGSTDYNSALKSRLSISKDNSKSQVFLKMNSLQTDDTARYYCARGGYDYDVSFFDYWGQGTTLTVSS
VL: DIVLTQTTSSLSASLGDRVTISCRASQDISNYLNWYQQKPDGTVKLLIYYTSRFHSGVPSRFSGSGSGTDYSLTISNLEHEDIATYFCQQGNTLPYTFGGGT
B8: 01B12-02B08 (antibody, IgG1, V domains shown)
VH: EVKLQESGPGLVAPSQSLSITCTVSGFSLTGYGVNWVRQPPGKGLEWLGMIWGDGSTDYNSALKSRLSISKDNSKSQVFLKMNSLQTDDTARYYCARDGYYYGTTWYFDVWGAGTTVTVSS
VL: DIVMTQSTSSLSASLGDRVTISCRASQDISNYLNWYQQKPDGTIKLLIYYTSRLHSGVPSRFSGSGSGTDYSLTISNLEQEDIATYFCQQGSTLPRTFGGGT

Target: T1, canine beta-NGF (cNGF)
Experiment: cell-based or functional assay

| Binder | Average Max % Inhib. (pERK 1/2, CHO cells expressing human TrkA) | IC50 (pERK 1/2, CHO cells expressing human TrkA) |
| --- | --- | --- |
| B1 | 27.7% | – |
| B2 | 88.2% | 18.8 nM |
| B3 | 72.4% | 9.8 nM |
| B4 | 78.1% | 5.5 nM |
| B5 | 82.2% | 4 nM |
| B6 | 86.2% | 4.1 nM |
| B7 | 57.4% | 7.1 nM |
| B8 | 87.1% | 4.7 nM |

Source: patent US20220106391A1 (ZOETIS SERVICES, published 2022)
